Experimental data reported in the DeepSol protein solubility set.

test: soluble on expression in E. coli; label from the status in PepcDB or PDB records

Q: With “MGSDKIHHHHHHMYNPVGVAAIGLGRWAYVMADAYTKSEKLKLVTCYSRTEDKREKFGKRYNCAGDATMEALLAREDVEMVIITVPNDKHAEVIEQCARSGKHIYVEKPISVSLDHAQRIDQVIKETGVKFLCGHSSRRLGALRKMKEMIDTKEIGEVSSIEAVFSNERGLELKKGNWRGEPATAPGGPLTQLGVHQIDNLQFLLGPVARVFNFGKPMYTEVENITVNQTLLEFEDGKQAYLGTNWACPGVFSINVYGTKANLFYQLDFSWWSNSDVTDEHSTLIKREFASMSDDPDNRILRDVKVDFESVDHLRVEVEEVADVIRNGGETEIGAEASLRNLAVVLAAVKSVHEKRPVEIAEIIG” as the sequence, how does the “soluble on expression in E. coli” value read?
A: not soluble

Q: With “MGSDKIHHHHHHMTKEQNSTENLDFQSPSDDTNLEGDFTADIVALAAKVEVQIQKIAERQRQISAKVQIPQPVEKIWKVLTDYEALPDFLPNLAKSRLIEHPNGGIRLEQVGSQRLLNFNFSARVVLDLEECFPREINFRMVEGDFKGFSGSWCLEPYSLGEYIGTNLCYTIQVWPKLTMPVGIIENRLSKDLRLNLVAIHQRVEELANKQPYI” as the sequence, how does the “soluble on expression in E. coli” value read?
A: not soluble

Q: With “MTKKKAHKPGSATIALNKRARHEYFIEEEFEAGLALQGWEVKSLRAGKANISDSYVLLRDGEAFLFGANITPMAVASTHVVCDPTRTRKLLLNQRELDSLYGRVNREGYTVVALSLYWKNAWCKVKIGVAKGKKQHDKRSDIKEREWQVDKARIMKNAHR” as the sequence, how does the “soluble on expression in E. coli” value read?
A: soluble

Q: With “MGSDKIHHHHHHYGLGRSWAPGLSQLDGVPRLGGTLDAPLVLNDASELSATPIHIHTRPAAHGDALIEAFRAELTAAQAEDRPVCVSAARHSMGGQSLPRGGHAITVDNAWIEPDTANQTYRVNGGARWRDVIAALDPIGFSPAVMQSNHDFGVAATFSVNAHGWPVPYGPMGATVREIRMVLPGGDLVTASRTENTDLFNLAVGGYGLAGLIVDMEVDMVPNQRLAPSFTPMPAADFPAAFRAAVDDPTMPMGYGRLNVTRESLFEEALLVTYSPTPDQSDIPPAIESGWLSYAASYLYRGQVGREGMKDWRWWVEADLGPRLAGESTRNSLMNEPVITLDDRDPTRVDILHEYFVPFDAFDGFLEACRDVIPDAFVEFLNVTLRFVDSDTDSLLPHSPTPRIAAVMSFTQEKTTRAEADHARMTRALIDRIVAIGGTYYLPYRPHATLDQFTAAYPNAPEFAAAKRALDPTLTLRNNLWDSYLADL” as the sequence, how does the “soluble on expression in E. coli” value read?
A: not soluble

Q: For “MGSDKIHHHHHHMNKKGNTEEIIERLFSILSSEKDSIEFLKAVSEFSKFYEIDKKEQERRSSEAKSFVKMALQDFESVKILYQSKIYSLAVYHLQQAVEKYVKAYVLAFFGLSKKEMKGYVGHDSPKAFIRLLDRYKRSLELFLKSIQKIGGLDTQFLKISDEDIRKLVRIVNMSRKQIAEMDSNQIKGIINATIKIKIALENKEIKNQILGLLSKLKNEASEIKSSDPSEKFILEKLIDSVDRVLNNLETLLKLSSTFLVLYMLSIITYPHATFARYPNKTLPPEKYDENLGIVQYFNEIVKLLDEVANLLVYEI”, which “soluble on expression in E. coli” value is on record?
A: not soluble

Q: Which “soluble on expression in E. coli” value does the source give for “MGSDKIHHHHHHMVIDSIRSSSTGPRDAPGKRLAVGISLFARDGQAIWENGIHQNIAFLAMMLKQSDRIGPVYFLNGGDAKALPAGLDLGGLDVPLVQPRDVSHALDVVIEMGAQLPVDWLKHMKALGKKLVVCFVGHTYSGLTETPMFNRPSGHIFNGGPFDEVWILPKSEKIDAPLLRTLTRAPVHVVPHIWSPYFIERRARELEAAGLRFGYAPGRAKWRLSILEPNISVVKTCHYPMLAADEFHRAQPDAVEHLFVVNSLHMKEHPTFVHFANSLDLVREHKATFEPRIDLPSFLAQHGDAVISHQWENPQNYLYYDVLYGGYPLVHNSPMLGDAGYYYPEFDSAAGGRALQHAWRHHDAHLDDYRRHADALLQAVSIDNRRNLDAYVARLFA” here?
A: not soluble

Q: For “MGSDKIHHHHHHMSAPRSICLLRLSAIGDTCNAAAVVNAIRQHYPEAEITWVIGKAEAALMAGMDGVNFVVFDKKRGMAAYRNLRRQLQGKRFDALLLMQVALRANLASLCISAKRRIGYDKAKSKELHSLFINERIEPTDKVHVLDNFRQFQKSLGIPLEEPDWNIPVNAEDRGWAKAQLDPNTSKHLIITAAASNTERNWLPDRYAAVADYAASQGFSVYLCGGPADYEKQLAANIQAHAKHSLHNLVGQSSLKQLFALIGEASLVLAPDTGPAHMAVAAGTPVIGLYAHSNPKRTGPYLWQNYVVDAYTPALKQTRGETPEQSRWGQRLKGAELMENITTEQVIDMLDRCIQEQNL”, which “soluble on expression in E. coli” value is on record?
A: not soluble

Q: For “AHHHHHHGSVDWELMKKIIESPGVSGYEHLGIRDLVVDILKDVADEVKIDKLGNVIAHFKGSAPKVMVAAHMDKIGLMVNHIDKDGYLRVVPIGGVLPETLIAQKIRFFTEKGERYGVVGVLPPHLRREAKDQGGKIDWDSIIVDVGASSREEAEEMGFRIGTIGEFAPNFTRLSEHRFATPYLDDRICLYAMIEAARQLGEHEADIYIVASVQEEIGLRGARVASFAIDPEVGIAMDVTFAKQPNDKGKIVPELGKGPVMDVGPNINPKLRQFADEVAKKYEIPLQVEPSPRPTGTDANVMQINREGVATAVLSIPIRYMHSQVELADARDVDNTIKLAKALLEELKPMDFTP”, which “soluble on expression in E. coli” value is on record?
A: soluble

Q: Which “soluble on expression in E. coli” value does the source give for “MKTTKFNIENLDLFYGENQALKSINLPIPTRQVTALIGPSGCGKSTLLRCLNRMNDLIEGVTITGKLTMDGQDVYGNIDVSDLRIRVGMVFQKPNPFPMSIYENVAYGLRAQGIKDKKHLDEVVERSLRGAALWDEVKDRLKSHAFGLSGGQQQRLCIARTIAMEPDVILMDEPTSALDPIATHKIEELMEDLKKNYTIVIVTHSMQQARRISDRTAFFLMGELVEHDDTQVIFSNPRDDRTRGYVNGDFG” here?
A: not soluble

Q: For “SGLVPRGSHMRLRPLGIEGVWEITPEQRADPRGVFLDWYHVDRFAEAIGRPLRLAQANLSVSVRGVVRGIHFVDVPPGQAKYVTCVRGAVFDVVVDLRVGSPTYGCWEGTRLDDVSRRAVYLSEGIGHGFCAISDEATLCYLSSGTYDPATEHGVHPLDPELAIDWPTGTPLLSPRDQDALLLAEARDAGLLPTYATCQAVTVPSPAPGSVGDPGP”, which “soluble on expression in E. coli” value is on record?
A: soluble

Q: For “MRLHPRTEAAKESIFPRMSGLAQRLGAVNLGQGFPSNPPPPFLLEAVRRALGRQDQYAPPAGLPALREALAEEFAVEPESVVVTSGATEALYVLLQSLVGPGDEVVVLEPFFDVYLPDAFLAGAKARLVRLDLTPEGFRLDLSALEKALTPRTRALLLNTPMNPTGLVFGERELEAIARLARAHDLFLISDEVYDELYYGERPRRLREFAPERTFTVGSAGKRLEATGYRVGWIVGPKEFMPRLAGMRQWTSFSAPTPLQAGVAEALKLARREGFYEALREGYRRRRDLLAGGLRAMGLRVYVPEGTYFLMAELPGWDAFRLVEEARVALIPASAFYLEDPPKDLFRFAFCKTEEELHLALERLGRVVNSPREAEGGAVSG”, which “soluble on expression in E. coli” value is on record?
A: soluble

Q: Which “soluble on expression in E. coli” value does the source give for “MGSDKIHHHHHHMKKLIDYLKANKITEVECVISDMTGIARGKIAPVDKFIDEKGMRLPESVLLQTVTGDYVDDDLYDSLLDKADIDFVCVPDENAVFMLPWTVEATAQVIHDTFDKMGNPIELSPRNLLKKVLKLYEDKGWKPVIAPEMEFYLTHRNSDPDMPLIPPVGRSGRKESGRQSFSIDAANEYDPLFEDMYDWCEAQGLDIDTLIHEEGTAQMEINFSHGDALSLADQVFVFKRTLREAALKHDVCATFMAKPVTDEPGSAMHIHQSVVDIKTGKNIFTNEDGTKSAKFLCYIGGLQKYIPELLPLMAPNVNSFRRFLPGTSAPVNLEWGDENRTCGLRIPESSPQNRRIENRIAGADANSYLAIAATLLCGYMGMVEDVKPSTPVQGRANENRQGISLPLTLEEALAVMSESSAVREYLGDTFTSGYIAVKQADLENFRRVISSWEREFLLLTV” here?
A: not soluble

Q: With “MGSDKIHHHHHHMKLSPTAQPFLHLHNLFILHQKVLVVKPMKELFPGLKRFRAYLNTAGLGLMPLTVYQKVNEFLLDVINYEDGINAVEILDELYFNPMLKKAAKLMKTNPENITVSLQTTDGLKRILTSLTPKKGMKIVSFDLEFPTISAILKSYAKRHGLEVKVIGNKGGLYYMEDVERVIDDNTFAVVFSDVQWITGQRMPTKEIAGVAHEHGAWVIVDAVQSLGALEVYPEKMEVDALVAGGEKWLLNPNTGSGVMWISEELIEVSEPILGLLNTQPEVPWSEWWGDERKDVWDILPVRKDARKLDPGTPPYVSIVALDASLELINSVGIEKIEKHDMKLAKRVREYAYELGVTALGSSQITLLRLGVDYVKQREIVKNLEEKGIVVSLRGAKGIFGIRVSPHLYNTEDDIVTLFDELSKFF” as the sequence, how does the “soluble on expression in E. coli” value read?
A: not soluble

Q: For “MGSDKIHHHHHHMVQAIDNTIATNFLTDAVVERHNFSQLNKTRIRFRIQLKKSTKSAAPKWADVLQAEVSEIESDLVKVTNSEVGLRGIKVFKKLDEAAAQLRQEIASVQEWMSADTGDWVCPIDLAPLVWNQLINIRDNIAPGLRNQLKADYEAGLVDYQERIDQFLSLNTWELAQDKQESVKANLLRAFPTLTDLEDYLQVVIGRPVIIPALSEQLNQQQAECLDQITKFIQQYDQNLEQRLRESALAGGEQLAAQLLEELADWEPGRKPVQFKKKMERHLMKVQVLLANADSEAGSSLEAMMTHLDSIVNDPAIESKNLGSDTRSQLQQKMQEIRIKLLDEQRNLQSLATEDVGLSKATVMSFKFR”, which “soluble on expression in E. coli” value is on record?
A: not soluble

Q: With “SAILALFFHMYSHNISSLSMKAQPERMHVLVLSSWRSGSSFVGQLFGQHPDVFYLMEPAWHVWMTFKQSTAWMLHMAVRDLIRAVFLCDMSVFDAYMEPGPRRQSSLFQWENSRALCSAPACDIIPQDEIIPRAHCRLLCSQQPFEVVEKACRSYSHVVLKEVRFFNLQSLYPLLKDPSLNLHIVHLVRDPRAVFRSRERTKGDLMIDSRIVMGQHEQKLKKEDQPYYVMQVICQSQLEIYKTIQSLPKALQERYLLVRYEDLARAPVAQTSRMYEFVGLEFLPHLQTWVHNITRGKGMGDHAFHTNARDALNVSQAWRWSLPYEKVSRLQKACGDAMNLLGYRHVRSEQEQRNLLLDLLSTWTVPEQIH” as the sequence, how does the “soluble on expression in E. coli” value read?
A: not soluble

Q: With “MTAAARTPAFYLDLGVPDTVMGRFEMLSVIMILYFRRTKSSGVSGQEIAQEIVDAFFQDIDHSIRELGIGDQGVPKRMKKFAGMFYGRLESYAAALDASDCAALAAALRRNIYPQVDDEAPEMEGLAGWMMETSDALAAQSEETIATGSLTLPLPILEHHHHHH” as the sequence, how does the “soluble on expression in E. coli” value read?
A: not soluble

Q: For “MGSDKIHHHHHHIASQENCSNKEDLTNRAEDFQSDFVKTMDIIKEHHVAYGNSNARNMLEVREQILQEKGFDDIYVQKKHAENCTAIAELPRVLAKIDELKNTGDEKTVLEYVSRGLLAGNVFDWGAKEVVKMMNSESGLTFQTAIDHVENRPWLFDGFDSFYKKHKEYKSVLIFVDNSGFDYILGIIPFARELLRNGSRVIICANTSPALNDLTYREMVELAPELKNADSDLAKFIDSNQMMFVQTGQESPCMDARRVHQDLNETVKKFNTDLVVIEGMGRALHTNFNVQFKCDSLKAAVIKTQWLADRLGGKMFSVVFKHE”, which “soluble on expression in E. coli” value is on record?
A: not soluble

Q: Which “soluble on expression in E. coli” value does the source give for “SKGLSFSSVYSVGNAAQTGVEDVLEHLDETFDAATSSHTLLLYIETISKPKRFLKHARSLVQKGCRIAAIKSGTSSDGGRAAASHTGAMLNSDVAVDALFRKAGVVRCYSREELATVGAVLQHPVLTGKNMAVITHAGGPAVMLTDALSNGGMSVPPIPEEKTRTLLSELFDGSSVANPIDILATGTAEQLSKVIDTCEKDLDTIDGMVVIFGSPGLFDVSDAYDVIREQQKKCKKPIYAVLPSVINAKEGMERFIAQGGILFEEEVALARAICKVYQTPKPEMTEESELPKAAEIRRLLAGKSGMLGTGDML” here?
A: not soluble

Q: For “MGSDKIHHHHHHMSAIPQAARKRGRPVKGESATLRDELILKSAKLFRTQGYERTTVRDIAAAAGVQAGSWFYYFKTKQDILVAVMEQGMSNALARIEALDVEHLPARDAFRALVHTHLHTLVSPDHDFIPVLLYEWKSLDEAMQAKVLKLKDRYEAVWDGVIERLQAAGEWPAPTPIDRLLMFGALNWVAQWYKPDGALGLDALAEHAVRFLLRTAETPAPAPAGTAKRRRGVKAS”, which “soluble on expression in E. coli” value is on record?
A: not soluble
